# B1: Rho guanine nucleotide exchange factor TIAM1 (Mus musculus), Q60610 (parent)
# chain: MGNAESQNVDHEFYGEKHASLGRKHTSRSLRLSHKTRRTRHASSGKAIHRNSEVSTRSSSTPSIPQSLAENGLEPFSQEGALDDFGDPIWVDRVDMGLRPVSYTDSSVTPSVDGSIVLTAASVQSMPDSEESRLYGDDATYLAEGGRRQCPYTSNGPTFMETASFKKKRSKSADIWREDSLEFSLSDLSQEHLTSNEEILGSAEEKDCEEARGMETEASPRQLSTCQRANSLGDLYAQKNSGVKANGGPRNRFSSYCRNLVSDIPDLAKHKMPPAAAEETPPYSNYNTLPCRKSHCLSEGATNPQISLSKSMQGRRAKTTQDVNTGEGSEFADSGIEGATTDTDLLSRRSNATNSSYSPPTGRAFVGSDSGSSSTGDRARQGVYENFRRELEMSTTNSESLEEAGSAHSDEQSSGTLSSPGQSDILLTAAQGTVRKAGALAVKNFLVHKKNKKVESATRRKWKHYWVSLKGCTLFFYETDGRSGIDHNSVPKHAVWVENSIVQAVPEHPKKDFVFCLSNSLGDAFLFQTTSQTELENWITAIHSACAAAVARHHHKEDTLRLLKSEIKKLEQKIDMDEKMKKMGEMQLSSVTDSKKKKTILDQIFVWEQNLEQFQMDLFRFRCYLASLQGGELPNPKRLLAFASRPTKVAMGRLGIFSVSSFHALVAARTGEIGVRRRTQAMSRSASKRRSRFSSLWGLDTTSKKKQGRPTINQVFGEGTDAVKRSLEGIFDDTVPDGKREKEVVLPSVHQHNPDCDIWVHEYFTPSWFCLPNNQPALTVVRPGDTARDTLELICKTHQLDHSAHYLRLKFLMENRVQFYIPQPEEDIYELLYKEIEICPKVTQNIHIEKSDAAADNYGFLLSSVDEDGIRRLYVNSVKETGLASKKGLKAGDEILEINNRAAGTLNSSMLKDFLSQPSLGLLVRTYPEPEGGVELLENPPHRVDGPVDLGESPLAFLTSNPGHSLSSEQGSSAETAPEEGEGPDLESSDETDHSSKSTEQVAAFCRSLHEMSPSDSSPSPQDATSPQLATTRQLSDADKLRKVICELLETERTYVKDLNCLMERYLKPLQKETFLTQDELDVLFGNLTEMVEFQVEFLKTLEDGVRLVPDLEKLEKVDQFKKVLFSLGGSFLYYADRFKLYSAFCASHTKVPKVLVKAKTDTAFKAFLDAQNPRQQHSSTLESYLIKPIQRVLKYPLLLRELFALTDAESEEHYHLDVAIKTMNKVASHINEMQKIHEEFGAVFDQLIAEQTGEKKEVADLSMGDLLLHTSVIWLNPPASLGKWKKEPELAAFVFKTAVVLVYKDGSKQKKKLVGSHRLSIYEEWDPFRFRHMIPTEALQVRALPSADAEANAVCEIVHVKSESEGRPERVFHLCCSSPESRKDFLKSVHSILRDKHRRQLLKTESLPSAQQYVPFGGKRLCALKGARPAMSRAVSAPSKSLGRRRRRLARNRFTIDSDAISASSPEKEPQQPAGGGDTDRWVEEQFDLAQYEEQDDIKETDILSDDDEFCESLKGASVDRDLQEQLQAASISQRARGRRTLDSHASRMTQLKKQAALSGINGGLESASEEVIWVRREDFAPSRKLNTEI
# B2: Rho guanine nucleotide exchange factor TIAM2 (Mus musculus), Q6ZPF3 (parent)
# chain: MGNSESQYTFQGSKNHSNTVTGAKQKPCSLKIRSVHAKDEKSLHGWTHGSSGAGYKSRSLARSCLSHFKNHQPYATRLSGPTCKVSKGTTYSKHRANTPGNDFQGNSGAFLPENGFHYVDRESEESHITSNGHLLTCYGRKESLASTPPGEDHRSPRVLIKTLGKLDGCLRVEFHNGGNPHKGTSEDPSGPVRLLRYSPTLASETCPVRETRRHSAAGSPSSQRPSPTDSRLRSSKGSSLSSESSWYDSPWGNAGEVSEVEGSFLAPSTPDPSLPSSFPPSDTKKPFNQSSSLSSLRELYKDPNLGCRSPSGTCLSSNEYISSQVSLNNRVSFASDMDVPSRVDHRDPLHYSSFTLPCRKSKALTEDAAKKDTLKARMRRFSDWTGSLSRKKRKLQEPRSMEGSEYFDSHSDGLNAEGQVPAQTSSLLWSGGSAQTLPHRSESTHAISVDPLRQNIYENFMRELEMSRSNTEHVETSTETMESSSESVSSLEQLDLLFEKEQGVVRKAGWLFFKPLVTLQKERKLELVARRKWKQYWVTLKGCTLLFYETYGKNSTEQNSAPRCALFAEDSIVQSVPEHPKKEHVFCLSNSCGDVYLFQATSQTDLENWVTAIHSACASLFAKKHGKEDTVRLLKSQTRSLLQKIDMDSKMKKMAELQLSVVSDPKNRKAIENQIRQWEQNLEKFHMDLFRMRCYLASLQGGELPNPKSLLAATSRPSKLALGRLGVLSVSSFHALVCSRDDSTLRKRTLSLTQRGKSKKGIFSSLKGLDTLARKGREKRASITQMFDSSHSHGFLGTQLPQKSTNSNKAHDLHLYGSAVDSALRDSMWEVQTYVHFQDNEGVTVTIKPEHRVEDVLALVCKMRQLEPTHYGLQLRKVVDKSVEWCVPALYEYMQEQVYDEIEVFPLSVYDVQLTKTGDMTDFGFAVTVQVDEHQHLNRIFISDVLPDSLAYGGGLRKGNEITSLNGEPVSDLDIQQMEALFSEKSVGLTLVARPVTTRRTLCASWSDSDLFSRDQKSLPPSPNQSQLLEEFLDNFRKTATSDFSNVPEITTGLKRSQTEGTLDQVPHREKMEQTFLSADQIAELCRDLNNTHTNSMEAPTESHDPPPRPLARHLSDADRLRKVIQELVDTEKSYVKDLSCLFELYLEPLQNETFLTQDEMESLFGSLPEMLEFQKVFLETLEDAISASSDFSVLETPSQFRKLLFSLGGSFLYYADHFKLYSGFCANHIKVQRVLERAKTDKAFKAFLDARNPTKQHSSTLESYLIKPVQRVLKYPLLLKELVSLTDHESEEHYHLTEALKAMEKVASHINEMQKIYEDYGMVFDQLVAEQSGTEKEVTELSMGELLMHSTVSWLNPFLSLGKARKDIELTVFVFKRAVILVYKENCKLKKKLPSNSRPAHNSADLDPFKFRWLIPISALQVRLGNTAGTENNSTWELIHTKSEIEGRPETIFQLCCSDSENKTSIVKVIRSILRENFRRHIKCELPLEKTCKDRLVPLKNRVPVSAKLASSRSLKGLRTSSSSEWPSEPSKGNSLDSDECSLSSGTQSSGCPVAESRRDSKSTELEKDAQEGLAEFPDGLIKESDILSDEDEDFHHPLKQGSPTKDIEIQFQRLKISEESDVHPVGQQPLTESGEQPKLVRGHFCPIKRKANSTKRGRGTLLKAQTRHQSLDSHPETASIDLNLVLEREFSVQSLTSVVNEEGFYETQSHGKS
# partner: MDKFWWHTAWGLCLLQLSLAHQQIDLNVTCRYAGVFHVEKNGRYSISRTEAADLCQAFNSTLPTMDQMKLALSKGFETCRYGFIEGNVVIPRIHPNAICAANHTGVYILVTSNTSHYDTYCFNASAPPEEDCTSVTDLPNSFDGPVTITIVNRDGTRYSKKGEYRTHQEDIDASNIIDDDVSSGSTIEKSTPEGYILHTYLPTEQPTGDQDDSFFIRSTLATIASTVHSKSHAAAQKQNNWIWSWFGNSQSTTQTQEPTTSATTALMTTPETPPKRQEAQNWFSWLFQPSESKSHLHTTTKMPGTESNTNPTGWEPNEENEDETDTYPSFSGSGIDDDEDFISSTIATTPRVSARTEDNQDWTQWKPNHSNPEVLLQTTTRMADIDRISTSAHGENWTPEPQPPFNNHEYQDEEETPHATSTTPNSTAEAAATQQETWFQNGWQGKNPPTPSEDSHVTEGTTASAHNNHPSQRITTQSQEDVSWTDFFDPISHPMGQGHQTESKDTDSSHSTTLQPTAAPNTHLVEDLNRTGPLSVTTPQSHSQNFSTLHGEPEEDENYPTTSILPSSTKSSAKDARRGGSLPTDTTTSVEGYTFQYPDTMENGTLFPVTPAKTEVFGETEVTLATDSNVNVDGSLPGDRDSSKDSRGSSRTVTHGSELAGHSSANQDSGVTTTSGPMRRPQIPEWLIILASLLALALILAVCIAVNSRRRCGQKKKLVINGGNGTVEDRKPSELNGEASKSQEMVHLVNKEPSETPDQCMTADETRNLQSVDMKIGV
# B3: Rho guanine nucleotide exchange factor TIAM2 (Mus musculus), Q6ZPF3 (parent)
# chain: B2 chain
# B4: CD44 antigen (Mus musculus), P15379 (parent)
# chain: B2 partner
# Variants of: B1
# Conditions: with pard3_human PARD3, Q8TEW0
row,Variant,effect of a mutation on the interaction
1,R645A,decreasing interaction
2,R622A,decreasing interaction

# Variants of: B2
# Conditions: with cd44_mouse Cd44, P15379
row,Variant,effect of a mutation on the interaction
1,R693A,decreasing interaction

# Variants of: B2
# Conditions: with cd44_mouse Cd44, P15379
# Remark: another data set of the same source
row,Variant,effect of a mutation on the interaction
1,R716A,decreasing interaction

# Variants of: B2
# Conditions: with cd44_mouse Cd44, P15379
# Remark: another data set of the same source
row,Variant,effect of a mutation on the interaction
1,K627A,decreasing interaction

# Variants of: B2
# Conditions: with cd44_mouse Cd44, P15379
# Remark: another data set of the same source
row,Variant,effect of a mutation on the interaction
1,R632A,decreasing interaction

# Variants of: B2
# Conditions: with cd44_mouse Cd44, P15379
# Remark: another data set of the same source
row,Variant,effect of a mutation on the interaction
1,K624A,decreasing interaction

# Variants of: B3
# Conditions: with pard3_human PARD3, Q8TEW0
# Target sequence in this assay (Q8TEW0 whole entry): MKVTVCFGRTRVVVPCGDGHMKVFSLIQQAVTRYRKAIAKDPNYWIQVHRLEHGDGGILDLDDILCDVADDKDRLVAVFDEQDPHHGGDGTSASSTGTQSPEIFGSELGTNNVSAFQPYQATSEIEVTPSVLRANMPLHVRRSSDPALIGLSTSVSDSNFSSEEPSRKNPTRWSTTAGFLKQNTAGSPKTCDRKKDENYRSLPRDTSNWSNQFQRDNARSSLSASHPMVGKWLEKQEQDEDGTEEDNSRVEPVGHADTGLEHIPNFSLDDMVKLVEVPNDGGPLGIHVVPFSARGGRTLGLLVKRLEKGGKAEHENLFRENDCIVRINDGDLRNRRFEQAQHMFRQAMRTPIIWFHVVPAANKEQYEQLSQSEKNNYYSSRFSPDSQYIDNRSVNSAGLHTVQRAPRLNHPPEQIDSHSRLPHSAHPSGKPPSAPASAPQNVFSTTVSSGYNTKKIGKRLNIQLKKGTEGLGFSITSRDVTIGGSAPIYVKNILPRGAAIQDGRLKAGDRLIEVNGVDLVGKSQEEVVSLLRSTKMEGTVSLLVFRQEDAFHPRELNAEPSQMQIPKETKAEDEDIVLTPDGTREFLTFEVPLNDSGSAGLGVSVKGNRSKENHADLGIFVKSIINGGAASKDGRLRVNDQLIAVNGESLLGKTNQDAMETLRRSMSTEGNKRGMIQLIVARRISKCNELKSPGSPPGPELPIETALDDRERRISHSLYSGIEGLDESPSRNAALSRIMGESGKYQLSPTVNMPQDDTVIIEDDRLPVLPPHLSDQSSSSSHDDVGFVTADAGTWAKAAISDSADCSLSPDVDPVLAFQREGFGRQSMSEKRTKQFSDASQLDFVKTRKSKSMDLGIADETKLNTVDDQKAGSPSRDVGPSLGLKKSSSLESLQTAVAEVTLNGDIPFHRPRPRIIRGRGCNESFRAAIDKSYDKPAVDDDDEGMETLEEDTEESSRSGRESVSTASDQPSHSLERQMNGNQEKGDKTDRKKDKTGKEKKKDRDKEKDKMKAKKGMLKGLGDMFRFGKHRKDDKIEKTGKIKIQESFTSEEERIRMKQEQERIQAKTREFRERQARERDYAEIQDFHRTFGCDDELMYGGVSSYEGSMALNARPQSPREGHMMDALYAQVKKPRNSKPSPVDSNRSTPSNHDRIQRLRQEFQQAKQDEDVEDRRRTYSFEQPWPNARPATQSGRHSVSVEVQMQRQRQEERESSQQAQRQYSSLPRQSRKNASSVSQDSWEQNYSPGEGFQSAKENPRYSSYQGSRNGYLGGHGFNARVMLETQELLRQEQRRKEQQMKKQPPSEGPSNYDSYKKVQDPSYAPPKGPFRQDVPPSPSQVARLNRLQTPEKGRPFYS
row,Variant,effect of a mutation on the interaction
1,R693A,decreasing interaction
2,R716A,decreasing interaction

# Variants of: B3
# Conditions: with PARD3, Q8TEW0-2
# Sequence of PARD3, Q8TEW0-2 (Q8TEW0 other isoform, or with tags, fused parts or gaps): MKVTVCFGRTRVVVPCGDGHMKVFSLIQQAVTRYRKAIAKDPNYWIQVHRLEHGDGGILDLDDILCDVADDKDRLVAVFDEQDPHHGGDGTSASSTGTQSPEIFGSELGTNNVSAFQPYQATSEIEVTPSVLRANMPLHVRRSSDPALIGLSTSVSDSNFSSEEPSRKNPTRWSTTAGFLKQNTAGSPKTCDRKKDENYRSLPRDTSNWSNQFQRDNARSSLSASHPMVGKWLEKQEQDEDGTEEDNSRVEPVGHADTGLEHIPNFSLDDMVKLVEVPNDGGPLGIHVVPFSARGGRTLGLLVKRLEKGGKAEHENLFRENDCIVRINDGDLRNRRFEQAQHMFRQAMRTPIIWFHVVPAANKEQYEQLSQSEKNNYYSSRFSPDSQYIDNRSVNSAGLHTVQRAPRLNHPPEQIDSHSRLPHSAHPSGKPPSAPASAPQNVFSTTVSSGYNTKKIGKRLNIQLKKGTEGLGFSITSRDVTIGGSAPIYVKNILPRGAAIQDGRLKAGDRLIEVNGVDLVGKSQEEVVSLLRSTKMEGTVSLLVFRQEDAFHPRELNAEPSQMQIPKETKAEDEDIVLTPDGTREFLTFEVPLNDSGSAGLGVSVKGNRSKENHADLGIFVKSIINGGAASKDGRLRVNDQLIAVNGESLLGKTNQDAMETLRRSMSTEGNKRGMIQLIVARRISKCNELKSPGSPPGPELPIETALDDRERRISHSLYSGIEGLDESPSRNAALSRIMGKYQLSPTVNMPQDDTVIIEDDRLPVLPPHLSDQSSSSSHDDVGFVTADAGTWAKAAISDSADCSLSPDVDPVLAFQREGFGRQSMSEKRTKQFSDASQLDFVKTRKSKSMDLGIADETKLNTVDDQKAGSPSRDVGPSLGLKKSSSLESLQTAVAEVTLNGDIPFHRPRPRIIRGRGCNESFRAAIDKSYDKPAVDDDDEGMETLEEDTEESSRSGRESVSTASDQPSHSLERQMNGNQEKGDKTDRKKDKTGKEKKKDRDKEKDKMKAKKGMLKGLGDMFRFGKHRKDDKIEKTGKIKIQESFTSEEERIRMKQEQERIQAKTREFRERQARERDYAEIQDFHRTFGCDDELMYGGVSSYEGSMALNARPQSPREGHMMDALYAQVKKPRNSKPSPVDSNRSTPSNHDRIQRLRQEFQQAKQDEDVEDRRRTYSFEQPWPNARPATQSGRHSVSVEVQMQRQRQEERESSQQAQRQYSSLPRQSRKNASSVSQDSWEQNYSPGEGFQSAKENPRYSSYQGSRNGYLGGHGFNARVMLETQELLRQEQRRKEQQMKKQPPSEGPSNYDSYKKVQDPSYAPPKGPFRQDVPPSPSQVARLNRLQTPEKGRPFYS
row,Variant,effect of a mutation on the interaction
1,R693A,decreasing interaction

# Variants of: B3
# Conditions: with PARD3, Q8TEW0-2
# Remark: another data set of the same source
row,Variant,effect of a mutation on the interaction
1,K624A,decreasing interaction

# Variants of: B3
# Conditions: with PARD3, Q8TEW0-2
# Remark: another data set of the same source
row,Variant,effect of a mutation on the interaction
1,R632A,decreasing interaction

# Variants of: B3
# Conditions: with PARD3, Q8TEW0-2
# Remark: another data set of the same source
row,Variant,effect of a mutation on the interaction
1,K627A,decreasing interaction

# Variants of: B3
# Conditions: with PARD3, Q8TEW0-2
# Remark: another data set of the same source
row,Variant,effect of a mutation on the interaction
1,R716A,decreasing interaction

# Variants of: B4
# Conditions: with tiam1_mouse Tiam1, Q60610
row,Variant,effect of a mutation on the interaction
1,E755K,disrupting interaction

# Variants of: B4
# Conditions: with tiam1_mouse Tiam1, Q60610
# Remark: another data set of the same source
row,Variant,effect of a mutation on the interaction
1,T762A,decreasing interaction

# Variants of: B4
# Conditions: with tiam1_mouse Tiam1, Q60610
# Remark: another data set of the same source
row,Variant,effect of a mutation on the interaction
1,E752K,disrupting interaction

# Variants of: B4
# Conditions: with tiam1_mouse Tiam1, Q60610
# Remark: another data set of the same source
row,Variant,effect of a mutation on the interaction
1,S754A,decreasing interaction

# Variants of: B4
# Conditions: with tiam1_mouse Tiam1, Q60610
# Remark: another data set of the same source
row,Variant,effect of a mutation on the interaction
1,P753A,decreasing interaction

# Variants of: B4
# Conditions: with tiam1_mouse Tiam1, Q60610
# Remark: another data set of the same source
row,Variant,effect of a mutation on the interaction
1,C760S,disrupting interaction
